Measurements from patent publication US20180155451A1 (published 2018).

T1: FcγRIIb (human, UniProt P31994 43-217)
T1 construct: extracellular domain; also called FcgRIIb; 2b; not shown: His tag at the C terminus
T1 sequence (looked up): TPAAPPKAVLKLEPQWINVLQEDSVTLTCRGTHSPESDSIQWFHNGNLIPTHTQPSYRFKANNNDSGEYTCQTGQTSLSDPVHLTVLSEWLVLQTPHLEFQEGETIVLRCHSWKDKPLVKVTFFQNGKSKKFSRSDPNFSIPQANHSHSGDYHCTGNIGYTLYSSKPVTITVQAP

T2: FcγRIIa R (human FcγRIIa, allotype R, Arg at position 131), extracellular domain with C-terminal His tag (human, UniProt P12318 34-217)
T2 construct: extracellular domain; expressed in FreeStyle293 cells; analyte in Biacore; also called 2aR; FcgRIIa R
T2 sequence (looked up): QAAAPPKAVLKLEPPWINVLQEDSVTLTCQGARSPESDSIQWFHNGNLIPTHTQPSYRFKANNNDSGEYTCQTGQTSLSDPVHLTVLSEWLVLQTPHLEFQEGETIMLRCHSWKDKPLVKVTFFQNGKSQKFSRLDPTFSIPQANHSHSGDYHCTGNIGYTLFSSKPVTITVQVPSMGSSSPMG


Columns and labels:
FcγRIa [1] = target: T3, FcγRIa (human, UniProt P12314 16-292); test: SPR (Biacore), antibody captured, FcγR as analyte; binding as % of GpH7-A5/GpH7-B3/GpL16-k0
T3 construct: extracellular domain; also called FcgRI; 1a; not shown: His tag at the C terminus

FcγRIIb = target: T1, FcγRIIb; test: as above
FcγRIa [2] = target: T3, FcγRIa; test: SPR (Biacore); He/Con_1a (FcγRIa) divided by He/Con_2b (FcγRIIb)
[3] = target: T2, FcγRIIa R (human FcγRIIa, allotype R, …); test: SPR (Biacore), relative binding vs GpH7-A5/GpH7-B3/GpL16-k0

T3 sequence (P12314 16-292): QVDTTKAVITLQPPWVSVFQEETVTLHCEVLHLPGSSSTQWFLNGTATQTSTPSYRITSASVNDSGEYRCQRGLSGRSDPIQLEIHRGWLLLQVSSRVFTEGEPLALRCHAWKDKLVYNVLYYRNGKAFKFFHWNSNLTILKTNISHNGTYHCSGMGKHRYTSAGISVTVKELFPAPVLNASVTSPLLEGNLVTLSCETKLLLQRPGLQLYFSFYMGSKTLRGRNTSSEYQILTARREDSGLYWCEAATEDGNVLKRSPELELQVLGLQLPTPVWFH

Binder	He/Con_1a (FcγRIa [1])	He/Con_2b (FcγRIIb)	Ia/IIb He_1a/2b (FcγRIa [2]) [ratio]	He/Con_2aR [3]
GpH7-A5/GpH7-B3 variant K326_20W/GpL16-k0 (antibody, human IgG1, kappa, heterodimerized IgG1; alteration in the GpH7-B3 H chain only; also called He Ab) heavy 1: not shown heavy 2: not shown light: DIVMTQSPLSLPVTPGEPASISCQASESLVHSNRNTYLHWYLQKPGQSPQLLIYKVSNRFSGVPDRFSGSGSGTDFTLKISRVEAEDVGVYYCSQNTHVPPTFGQGTKVEIERTVAAPSVFIFPPSDEQLKSGTASVVCLLNNFYPREAKVQWKVDNALQSGNSQESVTEQDSKDSTYSLSSTLTLSKADYEKHKVYACEVTHQGLSSPVTKSFNRGEC	103 % of control	148 % of control	0.69	–
GpH7-A5/GpH7-B3 variant P238_19Q/GpL16-k0 (antibody, human IgG1, kappa, heterodimerized antibody, mutation in one H chain only; also called He Ab) heavy 1: not shown heavy 2: not shown light: DIVMTQSPLSLPVTPGEPASISCQASESLVHSNRNTYLHWYLQKPGQSPQLLIYKVSNRFSGVPDRFSGSGSGTDFTLKISRVEAEDVGVYYCSQNTHVPPTFGQGTKVEIERTVAAPSVFIFPPSDEQLKSGTASVVCLLNNFYPREAKVQWKVDNALQSGNSQESVTEQDSKDSTYSLSSTLTLSKADYEKHKVYACEVTHQGLSSPVTKSFNRGEC	–	–	–	104 relative, control = 100
GpH7-A5/GpH7-B3 variant S267_06M/GpL16-k0 (antibody, human IgG1, kappa, heterodimerized antibody, mutation in one H chain only; also called He Ab) heavy 1: not shown heavy 2: not shown light: DIVMTQSPLSLPVTPGEPASISCQASESLVHSNRNTYLHWYLQKPGQSPQLLIYKVSNRFSGVPDRFSGSGSGTDFTLKISRVEAEDVGVYYCSQNTHVPPTFGQGTKVEIERTVAAPSVFIFPPSDEQLKSGTASVVCLLNNFYPREAKVQWKVDNALQSGNSQESVTEQDSKDSTYSLSSTLTLSKADYEKHKVYACEVTHQGLSSPVTKSFNRGEC	–	–	–	122 relative, control = 100
GpH7-A5/GpH7-B3 variant K326_10E/GpL16-k0 (antibody, human IgG1, kappa, heterodimerized IgG1; alteration in the GpH7-B3 H chain only; also called He Ab) heavy 1: not shown heavy 2: not shown light: DIVMTQSPLSLPVTPGEPASISCQASESLVHSNRNTYLHWYLQKPGQSPQLLIYKVSNRFSGVPDRFSGSGSGTDFTLKISRVEAEDVGVYYCSQNTHVPPTFGQGTKVEIERTVAAPSVFIFPPSDEQLKSGTASVVCLLNNFYPREAKVQWKVDNALQSGNSQESVTEQDSKDSTYSLSSTLTLSKADYEKHKVYACEVTHQGLSSPVTKSFNRGEC	104 % of control	200 % of control	0.52	–
GpH7-A5/GpH7-B3 variant P238_15Y/GpL16-k0 (antibody, human IgG1, kappa, heterodimerized antibody, mutation in one H chain only; also called He Ab) heavy 1: not shown heavy 2: not shown light: DIVMTQSPLSLPVTPGEPASISCQASESLVHSNRNTYLHWYLQKPGQSPQLLIYKVSNRFSGVPDRFSGSGSGTDFTLKISRVEAEDVGVYYCSQNTHVPPTFGQGTKVEIERTVAAPSVFIFPPSDEQLKSGTASVVCLLNNFYPREAKVQWKVDNALQSGNSQESVTEQDSKDSTYSLSSTLTLSKADYEKHKVYACEVTHQGLSSPVTKSFNRGEC	–	–	–	156 relative, control = 100
GpH7-A5/GpH7-B3 variant K326_09D/GpL16-k0 (antibody, human IgG1, kappa, heterodimerized IgG1; alteration in the GpH7-B3 H chain only; also called He Ab) heavy 1: not shown heavy 2: not shown light: DIVMTQSPLSLPVTPGEPASISCQASESLVHSNRNTYLHWYLQKPGQSPQLLIYKVSNRFSGVPDRFSGSGSGTDFTLKISRVEAEDVGVYYCSQNTHVPPTFGQGTKVEIERTVAAPSVFIFPPSDEQLKSGTASVVCLLNNFYPREAKVQWKVDNALQSGNSQESVTEQDSKDSTYSLSSTLTLSKADYEKHKVYACEVTHQGLSSPVTKSFNRGEC	103 % of control	193 % of control	0.54	–

Now from value to binder:

He/Con_1a (FcγRIa [1])	He/Con_2b (FcγRIIb)	Ia/IIb He_1a/2b (FcγRIa [2]) [ratio]	He/Con_2aR [3]	Binder
104 % of control	150 % of control	0.7	–	GpH7-A5/GpH7-B3 variant K326_14T/GpL16-k0 (antibody, human IgG1, kappa, heterodimerized IgG1; alteration in the GpH7-B3 H chain only; also called He Ab) heavy 1: not shown heavy 2: not shown light: DIVMTQSPLSLPVTPGEPASISCQASESLVHSNRNTYLHWYLQKPGQSPQLLIYKVSNRFSGVPDRFSGSGSGTDFTLKISRVEAEDVGVYYCSQNTHVPPTFGQGTKVEIERTVAAPSVFIFPPSDEQLKSGTASVVCLLNNFYPREAKVQWKVDNALQSGNSQESVTEQDSKDSTYSLSSTLTLSKADYEKHKVYACEVTHQGLSSPVTKSFNRGEC
–	–	–	110 relative, control = 100	GpH7-A5/GpH7-B3 variant P271_09D/GpL16-k0 (antibody, human IgG1, kappa, heterodimerized antibody, mutation in one H chain only; also called He Ab) heavy 1: not shown heavy 2: not shown light: DIVMTQSPLSLPVTPGEPASISCQASESLVHSNRNTYLHWYLQKPGQSPQLLIYKVSNRFSGVPDRFSGSGSGTDFTLKISRVEAEDVGVYYCSQNTHVPPTFGQGTKVEIERTVAAPSVFIFPPSDEQLKSGTASVVCLLNNFYPREAKVQWKVDNALQSGNSQESVTEQDSKDSTYSLSSTLTLSKADYEKHKVYACEVTHQGLSSPVTKSFNRGEC
–	–	–	151 relative, control = 100	GpH7-A5/GpH7-B3 variant P238_10E/GpL16-k0 (antibody, human IgG1, kappa, heterodimerized antibody, mutation in one H chain only; also called He Ab) heavy 1: not shown heavy 2: not shown light: DIVMTQSPLSLPVTPGEPASISCQASESLVHSNRNTYLHWYLQKPGQSPQLLIYKVSNRFSGVPDRFSGSGSGTDFTLKISRVEAEDVGVYYCSQNTHVPPTFGQGTKVEIERTVAAPSVFIFPPSDEQLKSGTASVVCLLNNFYPREAKVQWKVDNALQSGNSQESVTEQDSKDSTYSLSSTLTLSKADYEKHKVYACEVTHQGLSSPVTKSFNRGEC
102 % of control	139 % of control	0.73	–	GpH7-A5/GpH7-B3 variant K326_19Q/GpL16-k0 (antibody, human IgG1, kappa, heterodimerized IgG1; alteration in the GpH7-B3 H chain only; also called He Ab) heavy 1: not shown heavy 2: not shown light: DIVMTQSPLSLPVTPGEPASISCQASESLVHSNRNTYLHWYLQKPGQSPQLLIYKVSNRFSGVPDRFSGSGSGTDFTLKISRVEAEDVGVYYCSQNTHVPPTFGQGTKVEIERTVAAPSVFIFPPSDEQLKSGTASVVCLLNNFYPREAKVQWKVDNALQSGNSQESVTEQDSKDSTYSLSSTLTLSKADYEKHKVYACEVTHQGLSSPVTKSFNRGEC
